Entries after “also recorded” stand apart in the source; their conditions may differ. Read-outs that look alike come from different tables or passages of the source.
What was measured:
anesthetized rats = experiment: Blood pressure in anesthetized rats after intravenous delivery; assay type: in vivo, rat; settings: APLNv4 60 μg/kg, SABA-APLNv2 600 μg/kg
Description: Potential explanations for the absence of activity with the SABA-APLNv2 construct can include lessened potency due to poorer productive collision frequency, steric hindrance, or peptide-PKE annealing.

RhSA = RhSA (Macaca mulatta, UniProt Q28522); experiment: Biacore kinetics of SABAs on immobilized serum albumin: RhSA; assay type: binding, rhesus; settings: Rhesus albumin
RhSA, sequence (Q28522 17-600): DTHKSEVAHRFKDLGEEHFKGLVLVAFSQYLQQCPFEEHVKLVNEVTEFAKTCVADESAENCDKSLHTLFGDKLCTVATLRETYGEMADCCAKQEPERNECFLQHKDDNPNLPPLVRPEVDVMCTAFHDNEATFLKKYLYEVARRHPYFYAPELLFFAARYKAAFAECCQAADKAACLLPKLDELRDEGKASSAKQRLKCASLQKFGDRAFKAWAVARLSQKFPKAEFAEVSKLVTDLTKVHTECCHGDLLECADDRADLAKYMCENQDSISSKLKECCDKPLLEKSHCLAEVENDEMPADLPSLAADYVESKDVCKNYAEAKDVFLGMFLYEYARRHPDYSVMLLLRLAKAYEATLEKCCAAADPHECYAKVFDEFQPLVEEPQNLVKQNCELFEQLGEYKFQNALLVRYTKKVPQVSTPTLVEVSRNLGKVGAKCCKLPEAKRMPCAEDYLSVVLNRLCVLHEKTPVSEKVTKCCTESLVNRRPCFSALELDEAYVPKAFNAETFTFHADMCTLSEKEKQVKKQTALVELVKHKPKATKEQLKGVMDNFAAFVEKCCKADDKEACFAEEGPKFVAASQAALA
Experimental: (§1) In addition, binding to albumin was carried out under various pH conditions ranging from pH 5.5 to pH 7.4.

MuSA = MuSA (Mus musculus, UniProt P07724); experiment: Biacore kinetics of SABAs on immobilized serum albumin: MuSA; assay type: binding; settings: HBS-P buffer
MuSA, sequence (P07724 25-608): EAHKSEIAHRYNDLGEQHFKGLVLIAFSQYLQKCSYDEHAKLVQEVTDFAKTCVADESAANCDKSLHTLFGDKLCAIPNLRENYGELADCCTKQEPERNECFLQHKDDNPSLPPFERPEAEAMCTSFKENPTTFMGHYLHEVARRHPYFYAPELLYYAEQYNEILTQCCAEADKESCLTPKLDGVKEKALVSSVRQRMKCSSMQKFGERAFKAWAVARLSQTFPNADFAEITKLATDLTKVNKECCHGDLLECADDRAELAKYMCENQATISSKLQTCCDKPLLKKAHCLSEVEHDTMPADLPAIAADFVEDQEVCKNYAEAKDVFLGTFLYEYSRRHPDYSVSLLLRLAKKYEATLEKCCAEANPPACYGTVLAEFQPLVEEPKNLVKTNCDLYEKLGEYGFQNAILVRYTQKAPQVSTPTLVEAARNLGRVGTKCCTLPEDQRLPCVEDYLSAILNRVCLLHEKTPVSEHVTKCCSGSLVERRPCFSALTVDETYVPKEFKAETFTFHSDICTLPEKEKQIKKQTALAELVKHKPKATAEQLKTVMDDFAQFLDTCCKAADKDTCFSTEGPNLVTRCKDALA

rat serum albumin = rat serum albumin (Rattus norvegicus, UniProt P02770); experiment: SABA1.2 binding to rat serum albumin; settings: up to 1 μM
rat serum albumin, sequence (P02770 25-608): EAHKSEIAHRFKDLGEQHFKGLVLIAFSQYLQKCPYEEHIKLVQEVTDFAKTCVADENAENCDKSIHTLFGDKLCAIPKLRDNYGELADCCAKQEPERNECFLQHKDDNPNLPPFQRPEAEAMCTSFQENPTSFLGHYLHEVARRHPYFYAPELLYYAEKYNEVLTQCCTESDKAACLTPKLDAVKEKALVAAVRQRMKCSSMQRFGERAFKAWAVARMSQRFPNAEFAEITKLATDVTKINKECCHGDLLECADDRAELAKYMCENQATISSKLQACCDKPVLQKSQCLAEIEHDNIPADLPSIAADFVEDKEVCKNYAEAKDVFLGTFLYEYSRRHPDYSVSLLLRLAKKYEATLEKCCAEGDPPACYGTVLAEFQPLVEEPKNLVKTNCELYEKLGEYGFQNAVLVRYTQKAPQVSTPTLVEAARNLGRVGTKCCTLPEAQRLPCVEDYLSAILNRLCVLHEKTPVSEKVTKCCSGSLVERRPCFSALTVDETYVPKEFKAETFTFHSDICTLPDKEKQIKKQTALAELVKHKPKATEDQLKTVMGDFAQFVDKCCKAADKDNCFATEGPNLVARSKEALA

[1] = NOEL of SABA1.2 in cyno monkeys; assay type: in vivo; settings: IV, dosed twice weekly for 5 doses
Experimental: The NOEL (No observed effective level) in cyno monkeys is 30 mg/kg IV when dosed twice weekly for 5 doses. […] Thus, ample safety factors have been taken into consideration for the dosing levels in this study.”

HSA = HSA (Homo sapiens, UniProt P02768)
Experimental: as §1

[2] = cynomolgus monkey, in vivo
Experimental: The pharmacokinetics and bioavailability were also evaluated in a three-week, single-dose pre-toxicology study that included both intravenous and subcutaneous administration arms.
Non-compartmental analyses using WinNonlin software were performed to evaluate pharmacokinetic parameters.

[3] = Preliminary formulation screen and stability of SABA1.2

APLNv4: Apelin peptide variant fused in SABA-APLNv2 (QRPRLSHKGPMPF)
effect on blood pressure (anesthetized rats): robust hypotensive effect

B1: SABA1.2: “core 1” 10Fn3 comprising an (ED)5 extension; SEQ ID NO: 90 (protein)
chain: MGVSDVPRDLEVVAATPTSLLISWHSYYEQNSYYRITYGETGGNSPVQEFTVPYSQTTATISGLKPGVDYTITVYAVYGSKYYYPISINYRTEIEDEDEDEDED
ka (RhSA; 25° C., HBS-P buffer): 6600 M⁻¹ s⁻¹
kd (1/s) (RhSA; 25° C., HBS-P buffer): 3.78 ± 0.45E−03 1/s
ka (RhSA; 37° C., HBS-P buffer): 18900 M⁻¹ s⁻¹
kd (RhSA; 37° C., HBS-P buffer): 0.0185 s⁻¹
ka (RhSA; pH 5.5, MES buffer): 7570 M⁻¹ s⁻¹
kd (RhSA; pH 5.5, MES buffer): 0.00272 s⁻¹
ka (RhSA; pH 7.4, MES buffer): 6160 M⁻¹ s⁻¹
kd (RhSA; pH 7.4, MES buffer): 0.00295 s⁻¹
binding to Mouse albumin (MuSA; 25° C., up to 1 μM): No measurable interaction; also recorded: no observable binding
binding to Mouse albumin (MuSA; 37° C.): no observable binding
interaction with rat serum albumin (rat serum albumin): No measurable interaction
NOEL (No observed effective level) [1]: 30 mg/kg
kd (1/s) (HSA; Human albumin, 25° C., HBS-P buffer): 4.43 ± 0.65E−04 1/s
kd (HSA; Human albumin, 37° C., HBS-P buffer): 0.000815 s⁻¹
kd (HSA; Human albumin, pH 5.5, MES buffer): 0.00027 s⁻¹
kd (HSA; Human albumin, pH 7.4, MES buffer): 0.000388 s⁻¹
ka (HSA; pH 5.5): 9440 M⁻¹ s⁻¹
ka (HSA; pH 7.4): 9260 M⁻¹ s⁻¹
Bioavailability (F) ([2]; 1 mg/kg): 0.7
AUCall (hr * nmol/L) ([2]; iv, 10 mg/kg): 5,609,457 hr * nmol/L
Vz ([2]; iv, 10 mg/kg): 30 mL/kg
beta T1/2 ([2]; iv, 10 mg/kg): 143 h
AUCall (hr * nmol/L) ([2]; sc, 1 mg/kg): 251,339 hr * nmol/L
Vz ([2]; sc, 1 mg/kg): 62 mL/kg
beta T1/2 ([2]; sc, 1 mg/kg): 134 h
protein melting temperature by DSC ([3]; 10 mM succinic acid, 8% sorbitol, 5% glycine, pH 6.0, 1.25 mg/mL protein): 75 °C
level of aggregation after one month ([3]; 4° C.): 1.6%
solubility in the formulation ([3]; 4° C. and ambient temperature, no precipitation or increase in aggregation): at least 20 mg/mL
level of aggregation after one month ([3]; 25° C.): 3.8%
initial aggregate level ([3]; formulation pH 6.0, 5 mg/mL): 1.2%

— US9540424B2, “Serum albumin binding molecules” (BRISTOL-MYERS SQUIBB COMPANY, priority 2010, dated 2017)
